In US20110033476A1 (published 2011) one finds EC50 data, which are given here for one substance.

The target of this assay is 23 amino acid synthetic peptide corresponding to the M2e domain of A/Fort Worth/1/50 (H1N1) (Influenza A virus A/Fort Worth/1/50 (H1N1)). The assay can be described thus: ELISA, 23mer M2e peptide coated at 1 µg/mL (FIG. 14b). (In general: ELISA stands for enzyme-linked immunosorbent assay.)

Broadly, the EC50 is the concentration that produces a half-maximal response. “chimeric mouse V-region/human IgG1 kappa 14C2 antibody” showed an EC50 of 0.01 µg/mL.
